Positions count from the first letter of the chain named. Blank lines part the entries; values can stand above or below the binder they belong to.
Assays:
[1] = target: T1, PTPRD extracellular domain (wild type) (human, UniProt P23468 21-1265); test: SPR, ILRAPL1 (IL1RAPL1) ECD-Fc immobilized, PTPRD ectodomain-Fc as analyte
T1 construct: extracellular domain; Ectodomain-Fc in SPR; also called wt PTPRD; PTPRD ectodomain fused to an Fc tag
T1 sequence (looked up): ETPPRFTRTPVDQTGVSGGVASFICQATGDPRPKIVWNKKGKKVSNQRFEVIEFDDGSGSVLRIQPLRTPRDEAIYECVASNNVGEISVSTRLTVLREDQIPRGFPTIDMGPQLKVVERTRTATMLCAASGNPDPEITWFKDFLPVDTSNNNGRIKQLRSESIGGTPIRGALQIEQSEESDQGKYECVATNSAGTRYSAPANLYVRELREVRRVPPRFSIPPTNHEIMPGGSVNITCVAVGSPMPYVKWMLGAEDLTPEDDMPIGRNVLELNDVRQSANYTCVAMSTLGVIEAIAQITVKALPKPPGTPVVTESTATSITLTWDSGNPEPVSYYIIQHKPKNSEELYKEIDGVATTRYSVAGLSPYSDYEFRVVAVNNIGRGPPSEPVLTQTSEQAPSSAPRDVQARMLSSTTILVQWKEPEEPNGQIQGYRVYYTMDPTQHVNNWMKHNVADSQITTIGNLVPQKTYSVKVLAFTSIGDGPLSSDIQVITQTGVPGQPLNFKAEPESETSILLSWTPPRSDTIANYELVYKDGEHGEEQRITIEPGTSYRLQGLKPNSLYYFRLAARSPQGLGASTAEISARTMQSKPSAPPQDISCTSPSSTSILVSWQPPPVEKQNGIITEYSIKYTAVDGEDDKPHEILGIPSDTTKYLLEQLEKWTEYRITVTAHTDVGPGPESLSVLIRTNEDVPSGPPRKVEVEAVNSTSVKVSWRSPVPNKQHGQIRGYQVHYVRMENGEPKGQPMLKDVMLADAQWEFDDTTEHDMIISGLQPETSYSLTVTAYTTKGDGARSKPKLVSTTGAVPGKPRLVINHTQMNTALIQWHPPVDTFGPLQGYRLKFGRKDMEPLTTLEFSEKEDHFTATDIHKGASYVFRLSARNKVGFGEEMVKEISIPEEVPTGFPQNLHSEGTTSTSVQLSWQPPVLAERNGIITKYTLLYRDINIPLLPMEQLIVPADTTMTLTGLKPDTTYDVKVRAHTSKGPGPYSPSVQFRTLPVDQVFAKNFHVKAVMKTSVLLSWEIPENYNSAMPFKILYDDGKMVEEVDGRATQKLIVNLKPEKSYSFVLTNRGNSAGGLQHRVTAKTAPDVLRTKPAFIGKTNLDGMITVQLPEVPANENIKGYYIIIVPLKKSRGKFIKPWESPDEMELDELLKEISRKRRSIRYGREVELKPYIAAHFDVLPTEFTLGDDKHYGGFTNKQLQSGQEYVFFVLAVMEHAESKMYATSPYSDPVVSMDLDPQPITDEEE
Procedure: (§1) The indicated protein (expressed as an ECD-Fc fusion protein) was immobilized on a sensor chip and PTPRD (expressed as an ectodomain fused to an Fc tag) was injected at the indicated concentrations.

[2] = target: T1, PTPRD extracellular domain (wild type); test: SPR, SLITRK4 ECD-Fc immobilized, PTPRD ectodomain-Fc as analyte
Procedure: as §1

[3] = target: T1, PTPRD extracellular domain (wild type); test: SPR, LRFN4 ECD-Fc immobilized, PTPRD ectodomain-Fc as analyte
Procedure: as §1

[4] = target: T2, PTPRD G203E K204E variant extracellular domain (human, UniProt P23468 21-1265); test: extracellular interaction screen: pentameric PTPRD variant ECD on ECD-Fc prey (FIG. 5L)
T2 construct: extracellular domain; also called G203E/K204E double mutant; IG2 mutant
T2 sequence (looked up): T1 sequence (looked up) with G183E, K184E

[5] = target: T1, PTPRD extracellular domain (wild type); test: SPR, SLITRK1 ECD-Fc immobilized, PTPRD ectodomain-Fc as analyte
Procedure: as §1

[6] = target: T1, PTPRD extracellular domain (wild type); test: SPR, LRFN1 ECD-Fc immobilized, PTPRD ectodomain-Fc as analyte
Procedure: as §1

binding result [1]: binds
B1: IL1RAPL1 extracellular domain (receptor, human, UniProt Q9NZN1 19-357, looked up)
chain: LKVVTKRGSADGCTDWSIDIKKYQVLVGEPVRIKCALFYGYIRTNYSLAQSAGLSLMWYKSSGPGDFEEPIAFDGSRMSKEEDSIWFRPTLLQDSGLYACVIRNSTYCMKVSISLTVGENDTGLCYNSKMKYFEKAELSKSKEISCRDIEDFLLPTREPEILWYKECRTKTWRPSIVFKRDTLLIREVREDDIGNYTCELKYGGFVVRRTTELTVTAPLTDKPPKLLYPMESKLTIQETQLGDSANLTCRAFFGYSGDVSPLIYWMKGEKFIEDLDENRVWESDIRILKEHLGEQEVSISLIVDSVEEGDLGNYSCYVENGNGRRHASVLLHKRELMYT
notes: extracellular domain; ECD-Fc; also called ILRAPL1

binding result [2]: binds
B2: SLITRK4 extracellular domain (receptor, human, UniProt Q8IW52 19-618, looked up)
chain: DSDISVEICNVCSCVSVENVLYVNCEKVSVYRPNQLKPPWSNFYHLNFQNNFLNILYPNTFLNFSHAVSLHLGNNKLQNIEGGAFLGLSALKQLHLNNNELKILRADTFLGIENLEYLQADYNLIKYIERGAFNKLHKLKVLILNDNLISFLPDNIFRFASLTHLDIRGNRIQKLPYIGVLEHIGRVVELQLEDNPWNCSCDLLPLKAWLENMPYNIYIGEAICETPSDLYGRLLKETNKQELCPMGTGSDFDVRILPPSQLENGYTTPNGHTTQTSLHRLVTKPPKTTNPSKISGIVAGKALSNRNLSQIVSYQTRVPPLTPCPAPCFCKTHPSDLGLSVNCQEKNIQSMSELIPKPLNAKKLHVNGNSIKDVDVSDFTDFEGLDLLHLGSNQITVIKGDVFHNLTNLRRLYLNGNQIERLYPEIFSGLHNLQYLYLEYNLIKEISAGTFDSMPNLQLLYLNNNLLKSLPVYIFSGAPLARLNLRNNKFMYLPVSGVLDQLQSLTQIDLEGNPWDCTCDLVALKLWVEKLSDGIVVKELKCETPVQFANIELKSLKNEILCPKLLNKPSAPFTSPAPAITFTTPLGPIRSPPGGPVPLS
notes: extracellular domain; ECD-Fc

binding result [3]: binds | binding result [4]: no binding
B3: LRFN4 extracellular domain (receptor, human, UniProt Q6PJG9 17-518, looked up)
chain: CPLPCVCQNLSESLSTLCAHRGLLFVPPNVDRRTVELRLADNFIQALGPPDFRNMTGLVDLTLSRNAITRIGARAFGDLESLRSLHLDGNRLVELGTGSLRGPVNLQHLILSGNQLGRIAPGAFDDFLESLEDLDLSYNNLRQVPWAGIGAMPALHTLNLDHNLIDALPPGAFAQLGQLSRLDLTSNRLATLAPDPLFSRGRDAEASPAPLVLSFSGNPLHCNCELLWLRRLARPDDLETCASPPGLAGRYFWAVPEGEFSCEPPLIARHTQRLWVLEGQRATLRCRALGDPAPTMHWVGPDDRLVGNSSRARAFPNGTLEIGVTGAGDAGGYTCIATNPAGEATARVELRVLALPHGGNSSAEGGRPGPSDIAASARTAAEGEGTLESEPAVQVTEVTATSGLVSWGPGRPADPVWMFQIQYNSSEDETLIYRIVPASSHHFLLKHLVPGADYDLCLLALSPAAGPSDLTATRLLGCAHFSTLPASPLCHALQAHVLGGTL
notes: extracellular domain; ECD-Fc; also called LFRN4

binding result [5]: binds
B4: SLITRK1 extracellular domain (receptor, human, UniProt Q96PX8 18-622, looked up)
chain: NVTGDVCKEKICSCNEIEGDLHVDCEKKGFTSLQRFTAPTSQFYHLFLHGNSLTRLFPNEFANFYNAVSLHMENNGLHEIVPGAFLGLQLVKRLHINNNKIKSFRKQTFLGLDDLEYLQADFNLLRDIDPGAFQDLNKLEVLILNDNLISTLPANVFQYVPITHLDLRGNRLKTLPYEEVLEQIPGIAEILLEDNPWDCTCDLLSLKEWLENIPKNALIGRVVCEAPTRLQGKDLNETTEQDLCPLKNRVDSSLPAPPAQEETFAPGPLPTPFKTNGQEDHATPGSAPNGGTKIPGNWQIKIRPTAAIATGSSRNKPLANSLPCPGGCSCDHIPGSGLKMNCNNRNVSSLADLKPKLSNVQELFLRDNKIHSIRKSHFVDYKNLILLDLGNNNIATVENNTFKNLLDLRWLYMDSNYLDTLSREKFAGLQNLEYLNVEYNAIQLILPGTFNAMPKLRILILNNNLLRSLPVDVFAGVSLSKLSLHNNYFMYLPVAGVLDQLTSIIQIDLHGNPWECSCTIVPFKQWAERLGSEVLMSDLKCETPVNFFRKDFMLLSNDEICPQLYARISPTLTSHSKNSTGLAETGTHSNSYLDTSRVSISVLVP
notes: extracellular domain; ECD-Fc

binding result [6]: binds
B5: LRFN1 extracellular domain (receptor, human, UniProt Q9P244 32-536, looked up)
chain: QPCPGRCICQNVAPTLTMLCAKTGLLFVPPAIDRRVVELRLTDNFIAAVRRRDFANMTSLVHLTLSRNTIGQVAAGAFADLRALRALHLDSNRLAEVRGDQLRGLGNLRHLILGNNQIRRVESAAFDAFLSTVEDLDLSYNNLEALPWEAVGQMVNLNTLTLDHNLIDHIAEGTFVQLHKLVRLDMTSNRLHKLPPDGLFLRSQGTGPKPPTPLTVSFGGNPLHCNCELLWLRRLTREDDLETCATPEHLTDRYFWSIPEEEFLCEPPLITRQAGGRALVVEGQAVSLRCRAVGDPEPVVHWVAPDGRLLGNSSRTRVRGDGTLDVTITTLRDSGTFTCIASNAAGEATAPVEVCVVPLPLMAPPPAAPPPLTEPGSSDIATPGRPGANDSAAERRLVAAELTSNSVLIRWPAQRPVPGIRMYQVQYNSSVDDSLVYRMIPSTSQTFLVNDLAAGRAYDLCVLAVYDDGATALPATRVVGCVQFTTAGDPAPCRPLRAHFLGGTM
notes: extracellular domain; ECD-Fc; also called LFRN1

Reference: US20220119490A1 (Genentech, published 2022)
